Data published in PMC3920545 (Journal of molecular biology, 2012).

Molecular target: human Toll-like receptor 3 ectodomain (TLR3ecd) (Homo sapiens, UniProt O15455)
Assay: SPR

B1: Fab1068 (Fab, V domains shown)
VH: QVQLQQPGAELVQPGTSVRLSCKASGYIFTTYWIHWVKQRPGQGLEWIGEINPNNGRINYNEKFKTKATLTVDKSSSTAYMQLSSLTSEDSAVYYCTRVGVMITTFPYWGQGTLVTVSA
VL: DIQMTQSPASLSASVGETVTITCRASGNIHNYLAWYQQKQGKSPQLLVYNAKTLADGVPSRFSGSESGTQYSLKINSLQPEDFGSYYCQHFWSTPFTFGSGTKLELK
Kd: 0.0291 nM
koff: 0.000103 s⁻¹
kon: 3.54e+06 M⁻¹ s⁻¹
